Source: patent US20170129954A1 (PROTHENA BIOSCIENCES, published 2017)
Substitutions are numbered along the chain they refer to.

Assays:
[1] = biological target: T1, human MCAM, full length, expressed on transfected cells (human, UniProt P43121 24-646); experiment: flow cytometry, blocking of recombinant human laminin 411 (20 ug/ml) binding to CHO cells expressing human MCAM
T1 construct: also called CD146; MUC18
T1 chain: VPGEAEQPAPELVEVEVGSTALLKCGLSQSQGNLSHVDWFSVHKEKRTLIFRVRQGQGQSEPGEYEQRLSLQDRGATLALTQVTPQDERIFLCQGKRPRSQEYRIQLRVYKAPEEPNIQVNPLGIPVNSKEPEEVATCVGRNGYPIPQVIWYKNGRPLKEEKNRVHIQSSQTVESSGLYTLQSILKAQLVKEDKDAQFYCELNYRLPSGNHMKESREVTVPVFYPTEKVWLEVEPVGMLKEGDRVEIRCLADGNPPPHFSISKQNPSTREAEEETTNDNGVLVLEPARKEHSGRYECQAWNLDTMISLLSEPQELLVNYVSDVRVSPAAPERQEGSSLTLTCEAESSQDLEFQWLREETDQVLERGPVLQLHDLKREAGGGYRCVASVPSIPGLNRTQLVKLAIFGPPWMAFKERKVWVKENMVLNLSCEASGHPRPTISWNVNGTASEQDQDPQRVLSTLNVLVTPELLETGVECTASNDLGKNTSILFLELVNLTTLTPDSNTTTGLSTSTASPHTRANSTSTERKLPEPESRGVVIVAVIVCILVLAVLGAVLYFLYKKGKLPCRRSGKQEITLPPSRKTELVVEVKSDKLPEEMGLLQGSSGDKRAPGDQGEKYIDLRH
Protocol: The 87 independent mouse fusion clones and 26 independent rat fusion clones described in Example 1 above as being capable of (i) binding to human MCAM, and (ii) blocking the interaction between human MCAM and the α-4 chain of laminin were further characterized as follows. First, IC50 quantitation for the ability of the monoclonal antibody to block the binding of human MCAM to the α-4 chain of laminin was determined as follows. CHO cells expressing human MCAM were incubated with an anti-human MCAM antibody (at various concentrations) for 30 minutes at 4 degrees Celsius. […] Unbound laminin was then washed away, and the laminin bound to the surface of the cells was detected with fluorescently labeled anti-laminin antibodies. After washing, the amount of laminin bound to the surface was detected by flow cytometry, and IC50s were calculated based on the mean fluorescent intensity.
Amino acid and nucleic acid sequences of the heavy and light chains of these antibodies, and their hypervariable regions, are provided in SEQ ID NOs:29-92. […] As such, each of these specific monoclonal antibodies was very capable of binding to human MCAM and inhibiting the interaction of cell-expressed human MCAM with its α-4 laminin binding ligand.

[2] = biological target: T2, human MCAM Y318A mutant (shotgun mutagenesis library, on BHK cells) (human, UniProt P43121 24-646); experiment: shotgun mutagenesis library, immunofluorescence on BHK cells, triplicate, background-subtracted and normalized to WT
T2 chain: T1 chain with Y295A
Protocol: (§1) The mutation library was assayed for surface expression (mouse sera binding) and monoclonal antibody binding, in triplicate. Each raw data point was background-subtracted and normalized to the wild type MCAM reactivity values. The mean monoclonal antibody binding value for each clone is plotted as a function of its mean surface expression value (FIG. 1, gray diamonds). Thresholds of <30% monoclonal antibody reactivity and >50% mouse sera binding were applied to identify clones (FIG. 1, black diamonds) that were negative for monoclonal antibody binding but positive for surface expression.
(§2) Residues involved in antibody binding were identified as those that were negative for monoclonal antibody binding (<30% WT) but positive for surface expression (>50% WT) (Table 4). The mean reactivity (and standard deviation) were determined for each critical residue.

[3] = biological target: T3, human MCAM W377A mutant (shotgun mutagenesis library, on BHK cells) (human, UniProt P43121 24-646); experiment: as above
T3 chain: T1 chain with W354A
Protocol: as §1, §2

B1: mouse anti-human MCAM monoclonal antibody clone 1749.1.3 (antibody, V domains shown)
VH: DVKLVESGGDLVKPGGSLKLSCAASGFTFSSYIMSWVRQTPEKRLEWVATISSGGSSTYYPDSVKGRFTISRDNAKNTLYLQMSSLKSEDTAMYYCTRDDDYDVKVFAYWGQGTLVTVSA
VL: DIVMSQSPSSLAVSAGEKVTMNCKSSRSLLNSRIRKNYLAWYQQKPGQSPKLLIYWASTRESGVPDRFTGSGSGTDFTLTISSVQAEDLAVYYCKQSYNLLTFGAGTKLELK
notes: Mouse hybridoma monoclonal antibody; also called m1749
- IC50 [1]: 0.545 µg/mL
- mean reactivity (% of wild type MCAM), standard deviation in brackets [2]: 7.1 % of WT
- mean reactivity (% of wild type MCAM), standard deviation in brackets [3]: 13.7 % of WT
